B1: Cysteine and glycine-rich protein 3 (Homo sapiens), P50461 (parent)
chain: MPNWGGGAKCGACEKTVYHAEEIQCNGRSFHKTCFHCMACRKALDSTTVAAHESEIYCKVCYGRRYGPKGIGYGQGAGCLSTDTGEHLGLQFQQSPKPARSVTTSNPSKFTAKFGESEKCPRCGKSVYAAEKVMGGGKPWHKTCFRCAICGKSLESTNVTDKDGELYCKVCYAKNFGPTGIGFGGLTQQVEKKE

Variants of: B1
Settings: with nrap_human NRAP

| effect of a mutation on the interaction | Variant |
| --- | --- |
| disrupting interaction | C58G |

Variants of: B1
Settings: with nrap_human NRAP
Remark: another data set of the same source

| effect of a mutation on the interaction | Variant |
| --- | --- |
| decreasing interaction | C58G |

Variants of: B1
Settings: with actn2_human ACTN2, P35609
Chain of actn2_human ACTN2, P35609 (P35609 whole entry): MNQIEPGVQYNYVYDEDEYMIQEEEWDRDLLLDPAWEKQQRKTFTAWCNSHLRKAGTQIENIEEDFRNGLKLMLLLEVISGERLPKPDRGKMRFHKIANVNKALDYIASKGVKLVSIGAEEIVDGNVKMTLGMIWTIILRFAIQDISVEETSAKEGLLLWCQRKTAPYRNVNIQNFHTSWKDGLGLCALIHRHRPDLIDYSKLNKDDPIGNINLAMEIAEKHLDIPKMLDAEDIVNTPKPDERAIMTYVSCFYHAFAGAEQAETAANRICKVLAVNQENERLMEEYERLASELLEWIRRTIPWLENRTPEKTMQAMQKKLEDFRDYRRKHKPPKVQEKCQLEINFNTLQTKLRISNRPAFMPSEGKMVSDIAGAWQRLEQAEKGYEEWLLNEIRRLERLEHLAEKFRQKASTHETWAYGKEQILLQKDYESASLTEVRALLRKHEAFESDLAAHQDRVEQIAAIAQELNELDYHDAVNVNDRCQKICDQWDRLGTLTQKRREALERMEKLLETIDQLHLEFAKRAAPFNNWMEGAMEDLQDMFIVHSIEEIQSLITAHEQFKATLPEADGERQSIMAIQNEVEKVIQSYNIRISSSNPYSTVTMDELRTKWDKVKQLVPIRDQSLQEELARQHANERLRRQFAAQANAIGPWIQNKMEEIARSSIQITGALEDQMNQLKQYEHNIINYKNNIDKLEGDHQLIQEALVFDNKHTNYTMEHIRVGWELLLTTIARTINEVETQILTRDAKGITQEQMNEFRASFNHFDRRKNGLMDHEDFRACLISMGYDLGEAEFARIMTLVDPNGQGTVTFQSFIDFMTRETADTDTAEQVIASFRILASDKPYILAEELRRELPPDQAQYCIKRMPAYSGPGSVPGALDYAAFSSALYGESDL

| effect of a mutation on the interaction | Variant |
| --- | --- |
| decreasing interaction | C58G |
